Data taken from patent US20130295112A1 (AbbVie / Abbott, published 2013).

T1: human neurotrophin 4 (NT4) (human, UniProt P34130 81-210)
T1 construct: Bought protein coated on ELISA plates
T1 sequence (looked up): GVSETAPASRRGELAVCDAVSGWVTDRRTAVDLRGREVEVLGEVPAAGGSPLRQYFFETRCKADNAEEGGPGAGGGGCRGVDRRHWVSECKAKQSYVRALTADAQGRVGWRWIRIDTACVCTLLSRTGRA

T2: human neurotrophin 3 (NT3) (human, UniProt P20783 139-257)
T2 construct: Bought protein coated on ELISA plates
T2 sequence (looked up): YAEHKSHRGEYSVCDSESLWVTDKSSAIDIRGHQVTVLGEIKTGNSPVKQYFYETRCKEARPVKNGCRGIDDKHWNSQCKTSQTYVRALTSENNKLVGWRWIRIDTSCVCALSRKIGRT

T3: human brain-derived neurotrophic factor (BDNF) (human, UniProt P23560 129-247)
T3 construct: Bought protein coated on ELISA plates; also called human BDNF
T3 sequence (looked up): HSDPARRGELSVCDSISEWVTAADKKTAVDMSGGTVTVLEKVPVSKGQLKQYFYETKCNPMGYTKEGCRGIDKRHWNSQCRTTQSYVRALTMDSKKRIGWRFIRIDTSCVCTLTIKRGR


Legend:
[1] = target: recombinant human beta nerve growth factor (human) (UniProt P01138); assay: cell-based or functional assay
recombinant human beta nerve growth factor (human), sequence (P01138 122-241 limits assumed): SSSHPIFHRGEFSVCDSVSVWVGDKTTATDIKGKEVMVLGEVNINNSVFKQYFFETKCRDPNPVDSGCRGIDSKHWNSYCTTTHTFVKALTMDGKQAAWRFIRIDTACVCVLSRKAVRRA

[2] = target: T4, recombinant rat beta nerve growth factor (rat, UniProt P25427 122-241); assay: cell-based or functional assay
T4 sequence (P25427 122-241 limits assumed): as the sequence (P01138 122-241 limits assumed) above, with S3T, I6V, R9M, M37T, D60A, D65E, M92T, G94D, V117A, A120G counted along it

[3] = target: T1, human neurotrophin 4 (NT4); assay: ELISA, plates coated with human NT4, PG110 titrated, fluorescence read-out
Experimental: (§1) The selectivity profile of PG110 binding to human neurotrophins was determined using an Enzyme-Linked ImmunoSorbent Assay (ELISA) binding assay. ELISA plates were coated with 100 ng/well of either human NGF (R&D Systems, Cat. No. 256-GF), brain-derived neurotrophic factor (BDNF) (R&D Systems, Cat. No. 248-BD), neurotrophin 3 (NT3) (R&D Systems, Cat. No. 267-N3) or neurotrophin 4 (NT4) (R&D Systems, Cat. No. 268-N4). PG110 was added to neurotrophin-coated wells in the concentration range 3 pM-3 nM. After washing (PBS in 0.5% (v/v) Tween 20, pH 7.3), PG110 binding was detected using a biotinylated anti-human IgG antibody (Rockland Immunochemical Inc., Cat. No. 609-1602) coupled with streptavidin-linked alkaline phosphatase (Sigma Aldrich, Cat. No. S2890), followed by development of a color reaction by addition of 4-methylumbelliferyl phosphate (Sigma Aldrich, Cat. No. M3168). The reaction product was quantified using a fluorimeter (excitation at 360 nm; emission at 440 nm).

[4] = target: T2, human neurotrophin 3 (NT3); assay: ELISA, plates coated with human NT3, PG110 titrated, fluorescence read-out
Experimental: as §1

[5] = target: T4, recombinant rat beta nerve growth factor; assay: SPR (BIAcore), rrNGF immobilised on CM5 (60 RU), PG110 as analyte, 37 C, 1:1 Langmuir, mean of 3
Description: BIAcore analysis was used to evaluate the binding kinetics of the interaction between PG110 and either recombinant rat NGF (rrNGF) or recombinant human NGF (rhNGF).
Recombinant human beta nerve growth factor (rhNGF) (R&D Systems, Cat. No. 256 GF/CF) or recombinant rat beta nerve growth factor (rrNGF) (R&D Systems, Cat. No. 556 GF/CF) was immobilized covalently on CM5 sensor chips (GE Healthcare, formerly Biacore AB, Uppsala, Sweden) via primary amine groups using the amine coupling kit (GE Healthcare), with HBSEP (10 mM 4-(2-hydroxyethyl)-1-piperazineethanesulfonic acid (HEPES), 150 mM NaCl, 3 mM ethylene-diamine-tetraacetic acid (EDTA) and 0.005% Tween® 20, pH 7.4) as running buffer. The sensor chip surface was activated by injection of a mixture of 400 mM N-(3-Dimethylaminopropyl)-N′-ethylcarbodiimide (EDC) and 100 mM N-Hydroxysuccinimide (NHS) (1:1, v/v) for 7 minutes at a flow rate of 10 μl/min. β-NGF (rh or rr) was diluted to 200 ng/ml in 10 mM sodium acetate pH 4.0 and the diluted solution was injected over the activated surface for various times to yield different surface densities. For quantitative interaction analyses, a surface density of 60 RU was prepared by injection of 50 μl diluted β-NGF (contact time 5 minutes). Non-reacted NHS esters were deactivated with 70 μl (contact time 7 minutes) ethanolamine solution (1 M, pH 8.5).

[6] = target: T4, recombinant rat beta nerve growth factor; assay: cell-based or functional assay; remark: listed apart in the source
recombinant mouse NGF = recombinant mouse NGF (mouse, UniProt P01139 122-241, limits assumed); assay: cell-based or functional assay
recombinant mouse NGF, sequence (P01139 122-241 limits assumed): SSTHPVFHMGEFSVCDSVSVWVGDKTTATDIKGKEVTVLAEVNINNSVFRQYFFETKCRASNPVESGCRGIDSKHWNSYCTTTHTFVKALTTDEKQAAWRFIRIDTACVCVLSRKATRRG

[7] = target: T4, recombinant rat beta nerve growth factor; assay: cell-based or functional assay; remark: listed apart in the source
[8] = target: T3, human brain-derived neurotrophic factor …; assay: ELISA, plates coated with human BDNF, PG110 titrated, fluorescence read-out
Experimental: as §1

Row | Molecule | IC50, TF1 cell proliferation mediated by human NGF (MTT), geomean, n=3; Batch 1 [1] [µg/mL] | IC50, TF1 cell proliferation mediated by human NGF (MTT), n=1; Batch 2 [1] [µg/mL] | IC50, TF1 cell proliferation mediated by rat NGF (MTT), geomean, n=3; Batch 1 [2] [µg/mL] | IC50, TF1 cell proliferation mediated by rat NGF (MTT), n=1; Batch 2 [2] [µg/mL] | binding result [3] | binding result [4] | Kd [5] [nM] | koff [5] [s⁻¹] | kon [5] [M⁻¹ s⁻¹] | IC50, TF1 cell proliferation mediated by rat NGF (MTT), geomean, n=2 [6] [µg/mL] | IC50, TF-1 cell proliferation stimulated by 10 ng/ml mouse recombinant NGF (MTT), geomean, n=3 (recombinant mouse NGF) [µg/mL] | IC50, TF-1 cell proliferation stimulated by 10 ng/ml rat recombinant NGF (MTT), geomean, n=5 [7] [µg/mL] | binding result [8]
1 | rat αD11 antibody (precursor of PG110) | 0.0637 | 0.107 | 0.0448 | 0.0549 |  |  |  |  |  |  |  |  | 
2 | PG110 (humanized anti-NGF antibody, Hu-alphaD11 variable regions with Ser-to-Pro hinge-mutated human IgG4 constant region and human kappa light chain) (antibody, V domains shown, expressed in CHO cells; also called PG110 antibody; PG110 mAb) VH: EVQLVESGGGLVQPGGSLRLSCAASGFSLTNNNVNWVRQAPGKGLEWVGGVWAGGATDYNSALKSRFTISRDNSKNTAYLQMNSLRAEDTAVYYCARDGGYSSSTLYAMDAWGQGTLVTVSS VL: DIQMTQSPSSLSASVGDRVTITCRASEDIYNALAWYQQKPGKAPKLLIYNTDTLHTGVPSRFSGSGSGTDYTLTISSLQPEDFATYFCQHYFHYPRTFGQGTKVEIKR |  |  |  |  | no binding | no binding | 0.092 | 1.5e-05 | 170000 | 0.0262 | 0.0308 | 0.0278 | no binding
